The values below come from PMC3810306.

In the experiment the target is human CD47 IgSF domain (human). Briefly: SPR. On the technique in general: In SPR one partner is held on a chip, and binding of the other changes the refractive index at the surface.

As a reminder, the Kd is a measure of binding affinity in units of concentration. A low value points to a tighter complex. In the case of “high-affinity SIRPα variant CV1 (consensus variant 1) monomer (designed binder)”, the Kd turned out to be 0.0111 nM.
“wild-type human SIRPα allele 1 monomer (V-set Ig domain, domain 1) (domain or fragment)” yielded an equilibrium dissociation constant (Kd) of 300 to 500 nM and a dissociation half-life (t1/2) of 1.8 s.
